In article doi:10.1101/2021.04.08.438961 (bioRxiv, 2021):
Numbering of substitutions follows the chain as printed. Names and notes keep the numbering of the source. Values joined by “and” are separate entries in the source; they are usually repeats but may differ in a detail not shown here. Equal entries are not always repeated.

B1: MinE (natural protein)
chain: MALLDFFLSRKKNTANIAKERLQIIVAERRRSDAEPHYLPQLRKDILEVICKYVQIDPEMVTVQLEQKDGDISILELNVTLPEAEELK
B2: MinD (natural protein)
chain: MARIIVVTSGKGGVGKTTSSAAIATGLAQKGKKTVVIDFDIGLRNLDLIMGCERRVVYDFVNVIQGDATLNQALIKDKRTENLYILPASQTRDKDALTREGVAKVLDDLKAMDFEFIVCDSPAGIETGALMALYFADEAIITTNPEVSSVRDSDRILGILASKSRRAENGEEPIKEHLLLTRYNPGRVSRGDMLSMEDVLEILRIKLVGVIPEDQSVLRASNQGEPVILDINADAGKAYADTVERLLGEERPFRFIEEEKKGFLKRLFGG
B3: MinD D40A (natural protein)
chain: B2 chain with D40A

Assays:
MinD = target: B2; experiment: mass-sensitive particle tracking
[1] = target: the molecule itself; experiment: mass-sensitive particle tracking

Binder | binding result (MinD) | stoichiometry N [1]
B1 | binds | 
B2 |  | 2 and > 2 and 3 and 4
B3 |  | 2 and 4
